Reference: patent US20140004106A1

Columns and labels:
[1] = target: 28mer peptide of the CXCR5 antigen; experiment: Antigen-ELISA; PBS 155 mM pH 7.00, after 1 week at +40°C
[2] = target: 28mer peptide of the CXCR5 antigen; experiment: Antigen-ELISA; Histidine 10 mM pH 6, T0
[3] = target: 28mer peptide of the CXCR5 antigen; experiment: Antigen-ELISA; Citrate 10 mM pH 6.50, after mechanical stress 350 rpm 2.5 h
[4] = target: 28mer peptide of the CXCR5 antigen; experiment: Potency (Antigen ELISA); stored +25°C, 6 months
[5] = target: 28mer peptide of the CXCR5 antigen; experiment: Antigen-ELISA; TRIS 10 mM pH 8.5, T0
[6] = target: 28mer peptide of the CXCR5 antigen; experiment: Antigen-ELISA; Citrate 10 mM pH 7.00, T0
[7] = target: 28mer peptide of the CXCR5 antigen; experiment: Antigen-ELISA; standard run with LA_09_004_1
[8] = target: 28mer peptide of the CXCR5 antigen; experiment: Antigen-ELISA; PB 10 mM pH 7.00, after mechanical stress 350 rpm 2.5 h
[9] = target: 28mer peptide of the CXCR5 antigen; experiment: Antigen-ELISA; standard run with LA_09_004_2
[10] = target: 28mer peptide of the CXCR5 antigen; experiment: Antigen-ELISA; standard, repeated values in the 3 weeks -20°C
[11] = target: 28mer peptide of the CXCR5 antigen; experiment: Antigen-ELISA; Arginine 10 mM pH 8, T0
[12] = target: 28mer peptide of the CXCR5 antigen; experiment: Antigen-ELISA; standard run with LA_09_29A, T0
[13] = target: 28mer peptide of the CXCR5 antigen; experiment: Antigen-ELISA; PBS 155 mM pH 6.50, T0
[14] = target: 28mer peptide of the CXCR5 antigen; experiment: ELISA potency (binding); 100 mg/mL, Arginine (30), T zero
[15] = target: 28mer peptide of the CXCR5 antigen; experiment: Antigen-ELISA; acetate 10 mM prototype A, T0
[16] = target: 28mer peptide of the CXCR5 antigen; experiment: Antigen-ELISA; standard run with LA 09_004_9
[17] = target: 28mer peptide of the CXCR5 antigen; experiment: ELISA potency (binding); 100 mg/mL, Glycine (20), 7 days at 40°C
[18] = target: 28mer peptide of the CXCR5 antigen; experiment: Antigen-ELISA; standard run with LA_09_29B, T0
[19] = target: 28mer peptide of the CXCR5 antigen; experiment: Potency (Antigen ELISA); stored -20°C, 1 month
[20] = target: 28mer peptide of the CXCR5 antigen; experiment: Antigen-ELISA; histidine 10 mM prototype D, T0
[21] = target: 28mer peptide of the CXCR5 antigen; experiment: ELISA potency (binding); 100 mg/mL, Trehalose (60) + NaCl (2), T zero
[22] = target: 28mer peptide of the CXCR5 antigen; experiment: Antigen-ELISA; Arginine 10 mM pH 8, after 1 week at +40°C
[23] = target: 28mer peptide of the CXCR5 antigen; experiment: Antigen-ELISA; Succinate 10 mM pH 5.00, T0
[24] = target: 28mer peptide of the CXCR5 antigen; experiment: ELISA potency (binding); 100 mg/mL, Lysine (30) + Mannitol (15), T zero
[25] = target: 28mer peptide of the CXCR5 antigen; experiment: Antigen-ELISA; standard run with LA_09_004_3
[26] = target: 28mer peptide of the CXCR5 antigen; experiment: Antigen-ELISA; PB 10 mM pH 7.50, after 1 week at +40°C
[27] = target: 28mer peptide of the CXCR5 antigen; experiment: Potency (Antigen ELISA); stored +25°C, initial
[28] = target: 28mer peptide of the CXCR5 antigen; experiment: Ag-ELISA; DS in PBS, -20°C, 1 month
[29] = target: 28mer peptide of the CXCR5 antigen; experiment: Antigen-ELISA; PBS 155 mM pH 6.50, after mechanical stress 350 rpm 2.5 h
[30] = target: 28mer peptide of the CXCR5 antigen; experiment: Antigen-ELISA; acetate 10 mM prototype A, repeated values in the 3 weeks -20°C
[31] = target: 28mer peptide of the CXCR5 antigen; experiment: Antigen-ELISA; PB 5 mM pH 7.50, after 1 week at +40°C
[32] = target: 28mer peptide of the CXCR5 antigen; experiment: Antigen-ELISA; PB 10 mM pH 6.50, after 1 week at +40°C
[33] = target: 28mer peptide of the CXCR5 antigen; experiment: Antigen-ELISA; Histidine 10 mM pH 6.5, T0
[34] = target: 28mer peptide of the CXCR5 antigen; experiment: ELISA potency (binding); 100 mg/mL, Arginine (20) + NaCl (2), T zero
[35] = target: 28mer peptide of the CXCR5 antigen; experiment: Potency (Antigen ELISA); stored -20°C, 9 months
[36] = target: 28mer peptide of the CXCR5 antigen; experiment: Antigen-ELISA; Citrate 10 mM pH 6.00, after mechanical stress 350 rpm 2.5 h
[37] = target: 28mer peptide of the CXCR5 antigen; experiment: Antigen-ELISA; TRIS 10 mM pH 7.5, T0
[38] = target: 28mer peptide of the CXCR5 antigen; experiment: Antigen-ELISA; Citrate 10 mM pH 5.00, T0
[39] = target: 28mer peptide of the CXCR5 antigen; experiment: ELISA potency (binding); 100 mg/mL, Arginine (30), 7 days at 40°C
[40] = target: 28mer peptide of the CXCR5 antigen; experiment: Antigen-ELISA; standard run with LA_09_28B, T0
[41] = target: 28mer peptide of the CXCR5 antigen; experiment: Antigen-ELISA; PBS 155 mM, 1 h purged with N2, 24 h
[42] = target: 28mer peptide of the CXCR5 antigen; experiment: ELISA potency (binding); 100 mg/mL, Sucrose (60) + NaCl (2), 7 days at 40°C
[43] = target: 28mer peptide of the CXCR5 antigen; experiment: Antigen-ELISA; Acetate 10 mM pH 5.00, T0
[44] = target: 28mer peptide of the CXCR5 antigen; experiment: Ag-ELISA; DS in PBS, -20°C, 3 months

- EC50 % [1]: 97%
- EC50 % [2]: 184%
- EC50 % [3]: 41%
- EC50 value (in comparison to reference) [4]: 104%
- EC50 % [5]: 118%
- EC50 % [6]: 59.9%
- EC50 % [7]: 100%
- EC50 % [8]: 61.4%
- EC50 % [9]: 100%
- EC50 % [10]: 100%
- EC50 % [11]: 121%
- EC50 % [12]: 100%
- EC50 % [13]: 139%
- rel. potency [%] [14]: 160%
- EC50 % [15]: 112%
- EC50 % [16]: 100%
- rel. potency [%] [17]: 180%
- EC50 % [18]: 100%
- EC50 value (in comparison to reference) [19]: 107%
- EC50 % [20]: 169%
- rel. potency [%] [21]: 110%
- EC50 % [22]: 88%
- EC50 % [23]: 124%
- rel. potency [%] [24]: 88%
- EC50 % [25]: 100%
- EC50 % [26]: 68%
- EC50 value (in comparison to reference) [27]: 75%
- EC50 % [28]: 132%
- EC50 % [29]: 79.3%
- EC50 % [30]: 112%
- EC50 % [31]: 141%
- EC50 % [32]: 78.8%
- EC50 % [33]: 110%
- rel. potency [%] [34]: 144%
- EC50 value (in comparison to reference) [35]: 101%
- EC50 % [36]: 136%
- EC50 % [37]: 104%
- EC50 % [38]: 79%
- rel. potency [%] [39]: 143%
- EC50 % [40]: 100%
- EC50 % [41]: 89.3%
- rel. potency [%] [42]: 188%
- EC50 % [43]: 147%
- EC50 % [44]: 93%
B1: Lead CXCR5 Antibody (humanized IgG4 anti-CXCR5 antibody) (antibody, V domains shown)
VH: QVQLKESGPGLVAPSESLSITCTVSGFSLIDYGVNWIRQPPGKGLEWLGVIWGDGTTYYNPSLKSRLSISKDNSKSQVFLKVTSLTTDDTAMYYCARIVYWGQGTLVTVSA
VL: DIVMTQAAPSVAVTPGASVSISCRSSKSLLHSSGKTYLYWFLQRPGQSPQLLIYRLSSLASGVPDRFSGSGSGTAFTLRISRVEAEDVGVYYCMQHLEYPYTFGGGTKLEIKR
